Source: article doi:10.1101/2022.01.19.477021, “The Intrinsically Disordered Region of Coronins Fine-tunes Oligomerization and Actin Polymerization” (bioRxiv, 2022)
Several values for one entry are separate records, joined by “and”; a condition that tells them apart may be missing. Equal values may be shown once.

B1: Crn1-CC (C-terminal coiled-coil domain, aa 605-651) (domain or fragment, S. cerevisiae, UniProt Q06440 605-651, looked up)
chain: LGLKKSVEKLSTLVLQLEDVVDKLTKANLDKDERLLKLEQKIGELSK
notes: Crn1 (coronin), S. cerevisiae, residues 605-651, coiled-coil domain; made by truncating 401-604 from the Crn1-ΔN (401-651) plasmid; The introduction gives the CC domain as aa 600-651; also called CC domain; source: E. coli Rosetta (DE3), purified (HisTrap, SEC when necessary)
B2: Crn1 full-length (Crn1-FL), recombinant from E. coli (natural protein, S. cerevisiae, UniProt Q06440 1-651, looked up)
chain: MSGKFVRASKYRHVFGQAAKKELQYEKLKVTNNAWDSNLLKTNGKFIAVNWNASGGGAFAVIPIEEVGKAPDQVPLFRGHTAQVLDTDFDPFNDHRIASGSDDSKIGIWDIPENYKFHDHVDEDGEPIDIKPVKFLTGHARKVGHVLYHPVAENVLASSSGDYTVKLWNVETGKDMITLKHPDMVTSMSFSYDGNYLATVARDKKLRVWNIREEKIVSEGPAHTGAKNQRVVWLGNSDRLATTGFSKLSDRQIGIWDAFNIEKGDLGGFYTVDQSSGILMPFYDEGNKILYLVGKGDGNIRYYEFQNDELFELSEFQSTEAQRGFAVAPKRMVNVKENEVLKGFKTVVDQRIEPVSFFVPRRSEEFQEDIYPDAPSNKPALTAEEWFSGKSVEGPILVSMRSIYDGSAPSFHEAKRPQQPTTQETALEEKKEQPKVEKPISESEKEVKQEAPKSPSPLKSASSSSTINHVLKEDNSINKLLKKSSDIDQVNNAEDPSRDTSGWEEADDEPAPIKIETPVTPTETKKDRTPKVEPSKELKPEPVSIATDRKQEQSLPQEEKSSEKTKSPEQEKSATPPSSITAAKTAITASSKEEPSAARTSPKSLGLKKSVEKLSTLVLQLEDVVDKLTKANLDKDERLLKLEQKIGELSK
notes: Crn1 (coronin), S. cerevisiae, residues 1-651; Vector pET-21d(+)(pSY5) adds an 8x histidine tag and an HRV 3C protease site at the N-terminus; cleavage is not described; By AUC-SV a mix of monomers and tetramers; also called WT Crn1; source: E. coli Rosetta (DE3), purified (HisTrap, SEC when necessary)
B3: yeast purified full-length Crn1 (yCrn1-FL) (natural protein, S. cerevisiae, UniProt Q06440 1-651, looked up)
chain: B2 chain
notes: Crn1 (coronin), S. cerevisiae, full length; The text says C-terminal 6xHis-tagged, but names the vector as pGAL-ORF-3×StreptagII-9×His; source: S. cerevisiae (strain YMY2043, galactose-induced overexpression), purified (HisTrap)
B4: Crn1ΔIDR-S (Crn1 with a short 40-aa middle fragment of the IDR) (natural protein, S. cerevisiae, UniProt Q06440 1-651, looked up)
chain: MSGKFVRASKYRHVFGQAAKKELQYEKLKVTNNAWDSNLLKTNGKFIAVNWNASGGGAFAVIPIEEVGKAPDQVPLFRGHTAQVLDTDFDPFNDHRIASGSDDSKIGIWDIPENYKFHDHVDEDGEPIDIKPVKFLTGHARKVGHVLYHPVAENVLASSSGDYTVKLWNVETGKDMITLKHPDMVTSMSFSYDGNYLATVARDKKLRVWNIREEKIVSEGPAHTGAKNQRVVWLGNSDRLATTGFSKLSDRQIGIWDAFNIEKGDLGGFYTVDQSSGILMPFYDEGNKILYLVGKGDGNIRYYEFQNDELFELSEFQSTEAQRGFAVAPKRMVNVKENEVLKGFKTVVDQRIEPVSFFVPRRSEEFQEDIYPDAPSNKPALTAEEWFSGKSVEGPILVSMSSDIDQVNNAEDPSRDTSGWEEADDEPAPIKIETPVTPTEPKSLGLKKSVEKLSTLVLQLEDVVDKLTKANLDKDERLLKLEQKIGELSK
notes: Crn1 (coronin), S. cerevisiae, residues 1-651 with 401-483 and 524-601 excluded by a two-step truncation of the full-length plasmid; short IDR 484-523 kept; By the stated limits residues 602-604 of the IDR stay in the construct; source: E. coli Rosetta (DE3), purified (HisTrap, SEC when necessary)
B5: Crn1-ΔN (IDR and CC domains, aa 401-651) (domain or fragment, S. cerevisiae, UniProt Q06440 401-651, looked up)
chain: RSIYDGSAPSFHEAKRPQQPTTQETALEEKKEQPKVEKPISESEKEVKQEAPKSPSPLKSASSSSTINHVLKEDNSINKLLKKSSDIDQVNNAEDPSRDTSGWEEADDEPAPIKIETPVTPTETKKDRTPKVEPSKELKPEPVSIATDRKQEQSLPQEEKSSEKTKSPEQEKSATPPSSITAAKTAITASSKEEPSAARTSPKSLGLKKSVEKLSTLVLQLEDVVDKLTKANLDKDERLLKLEQKIGELSK
notes: Crn1 (coronin), S. cerevisiae, residues 401-651 (IDR and CC domain); source: E. coli Rosetta (DE3), purified (HisTrap, SEC when necessary)
B6: Crn1-ΔIDR (Crn1 lacking the IDR, aa 401-604) (natural protein, S. cerevisiae, UniProt Q06440 1-651, looked up)
chain: MSGKFVRASKYRHVFGQAAKKELQYEKLKVTNNAWDSNLLKTNGKFIAVNWNASGGGAFAVIPIEEVGKAPDQVPLFRGHTAQVLDTDFDPFNDHRIASGSDDSKIGIWDIPENYKFHDHVDEDGEPIDIKPVKFLTGHARKVGHVLYHPVAENVLASSSGDYTVKLWNVETGKDMITLKHPDMVTSMSFSYDGNYLATVARDKKLRVWNIREEKIVSEGPAHTGAKNQRVVWLGNSDRLATTGFSKLSDRQIGIWDAFNIEKGDLGGFYTVDQSSGILMPFYDEGNKILYLVGKGDGNIRYYEFQNDELFELSEFQSTEAQRGFAVAPKRMVNVKENEVLKGFKTVVDQRIEPVSFFVPRRSEEFQEDIYPDAPSNKPALTAEEWFSGKSVEGPILVSMLGLKKSVEKLSTLVLQLEDVVDKLTKANLDKDERLLKLEQKIGELSK
notes: Crn1 (coronin), S. cerevisiae, residues 1-651 with the IDR (401-604) deleted; made from the pSY5-Crn1-FL plasmid; source: E. coli Rosetta (DE3), purified (HisTrap, SEC when necessary)

Assays:
[1] = molecular target: the molecule itself; assay: AUC; sedimentation velocity; 50 mM Tris pH 8.0, 150 mM NaCl, 20 °C, 30,000 or 45,000 rpm; c(s) and c(s,ff0) models in SEDFIT; samples at 3-9.2 µM
[2] = molecular target: rabbit skeletal muscle actin (RMA), filamentous (F-actin) (rabbit, UniProt P68135 1-377); assay: co-sedimentation; high-speed actin cosedimentation: a range of concentrations of Crn1 variant with a fixed concentration of pre-polymerized actin filaments in F-buffer, room temperature 30 min, 100,000 x g 20 min at 25°C; bound against free coronin fitted with the Hill equation; details: both partners purified
[3] = molecular target: the molecule itself; assay: SEC + other: negative-stain transmission electron microscopy; Superdex 200 increase 10/30 column in a pH 8 Tris-buffer with 150 mM NaCl; TEM of 1 µM protein in F-buffer

Binder	stoichiometry N [1]	Kd [2]	binding result [3]
B1	~15	–	–
B2	4	240 nM	–
B3	4 and 6	–	–
B4	3 and 6	–	–
B5	4	–	–
B6	–	–	binds
